Data: doi:10.64898/2025.12.18.695077v1

Tested on: O=P(O)(OC[C@@H](O)CO)OC[C@@H](O)CO
Experiment: purified protein
Details: co-substrate C22:6-CoA 100 uM, pH 7.4, 37 C, 0.05% LMNG

In the case of “CLN8 (FLAG-STREP-tagged, purified from human Flp-In T-REx 293 cells) (Homo sapiens)”, the Km is reported as 570 µM and the kcat is reported as 0.8022 s⁻¹.
